Results from the supplement of paper PMC9112550, “Optimization of the antimicrobial peptide Bac7 by deep mutational scanning” (BMC Biology, 2022).

System: Escherichia coli TOP10
Experiment: shrunken log2 fold change of peptide-encoding DNA abundance (4.5 h post-induction vs induction); higher = less antimicrobial activity (less host growth inhibition)
Settings: time post-induction: 4.5 h; library: site-saturation at positions 5, 18, 19, 20
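Also: peptides expressed intracellularly from a pBAD plasmid library in pooled LB shake-flask culture, induced with 0.3% L-arabinose, DNA abundance read by NGS, three biological replicates, DESeq2 with apeglm shrinkage.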

Sequence | shrunken log2 fold change
RRIRMRPPRLPRPRPRPDKWPRP | 0.934
RRIRWRPPRLPRPRPRPPDIPRP | 0.238
RRIRGRPPRLPRPRPRPPRNPRP | 1.1
RRIRQRPPRLPRPRPRPVIQPRP | -0.065
RRIRYRPPRLPRPRPRPPHRPRP | -0.0877
RRIRIRPPRLPRPRPRPPIFPRP | -0.0827
RRIRRRPPRLPRPRPRPVCSPRP | 0.225
RRIRVRPPRLPRPRPRPSCQPRP | -0.643
RRIRRRPPRLPRPRPRPARYPRP | 0.317
RRIRSRPPRLPRPRPRPTWWPRP | 0.422
RRIRYRPPRLPRPRPRPAVKPRP | -0.0154
RRIRKRPPRLPRPRPRPYAPPRP | -0.241
RRIRNRPPRLPRPRPRPKCDPRP | -0.471
RRIRRRPPRLPRPRPRPFPSPRP | 0.114
RRIRTRPPRLPRPRPRPTYRPRP | -0.0768
RRIRDRPPRLPRPRPRPIRVPRP | -0.185
RRIRPRPPRLPRPRPRPMYEPRP | -0.527
RRIRFRPPRLPRPRPRPMICPRP | -0.303
RRIRNRPPRLPRPRPRPDAYPRP | 0.068
RRIRQRPPRLPRPRPRPDCSPRP | 0.0489
RRIRCRPPRLPRPRPRPGAIPRP | -0.0334
RRIRIRPPRLPRPRPRPRGCPRP | 0.255
RRIRLRPPRLPRPRPRPYSAPRP | -0.693
RRIRKRPPRLPRPRPRPMLGPRP | 0.00289
RRIRLRPPRLPRPRPRPRDSPRP | -0.00311

Sequence | shrunken log2 fold change
RRIRHRPPRLPRPRPRPQKGPRP | -0.0617
RRIRFRPPRLPRPRPRPMTIPRP | -0.182
RRIRIRPPRLPRPRPRPYANPRP | -0.0728
RRIRIRPPRLPRPRPRPGFLPRP | -0.328
RRIRKRPPRLPRPRPRPYLKPRP | -0.525
RRIRGRPPRLPRPRPRPFDVPRP | 0.147
RRIRDRPPRLPRPRPRPHHNPRP | -0.562
RRIRIRPPRLPRPRPRPYFRPRP | -0.0907
RRIRSRPPRLPRPRPRPVHCPRP | -0.258
RRIRMRPPRLPRPRPRPFECPRP | 0.0161
RRIRYRPPRLPRPRPRPCGYPRP | -0.467
RRIRWRPPRLPRPRPRPDYRPRP | -0.0424
RRIRYRPPRLPRPRPRPRGAPRP | 1.34
RRIRFRPPRLPRPRPRPNATPRP | 0.0167
RRIRPRPPRLPRPRPRPRPVPRP | 0.528
RRIRCRPPRLPRPRPRPQDIPRP | -0.213
RRIRHRPPRLPRPRPRPMKNPRP | 0.0372
RRIRVRPPRLPRPRPRPYESPRP | -0.0252
RRIRARPPRLPRPRPRPFKSPRP | -0.549
RRIRGRPPRLPRPRPRPDMFPRP | 1.92
RRIRGRPPRLPRPRPRPIFRPRP | 0.0691
RRIRIRPPRLPRPRPRPPDSPRP | -0.0582
RRIRKRPPRLPRPRPRPACQPRP | 0.0289
RRIRFRPPRLPRPRPRPIPSPRP | -0.0572
RRIRIRPPRLPRPRPRPEGPPRP | -0.0796

Sequence | shrunken log2 fold change
RRIRCRPPRLPRPRPRPATWPRP | -0.104
RRIRCRPPRLPRPRPRPAIKPRP | -0.738
RRIRCRPPRLPRPRPRPEMCPRP | 0.0156
RRIRYRPPRLPRPRPRPILWPRP | -0.0119
RRIRPRPPRLPRPRPRPIIYPRP | -0.256
RRIRNRPPRLPRPRPRPLHDPRP | -0.178
RRIRYRPPRLPRPRPRPKRPPRP | 0.45
RRIRTRPPRLPRPRPRPRWWPRP | 0.533
RRIRMRPPRLPRPRPRPIPNPRP | 0.983
RRIRKRPPRLPRPRPRPCHNPRP | -0.111
RRIRFRPPRLPRPRPRPKVTPRP | -0.2
RRIRCRPPRLPRPRPRPHHDPRP | -0.58
RRIRCRPPRLPRPRPRPEEDPRP | -0.00229
RRIRKRPPRLPRPRPRPCCIPRP | 0.243
RRIRNRPPRLPRPRPRPAYYPRP | -0.0433
RRIRVRPPRLPRPRPRPCFLPRP | -0.493
RRIRSRPPRLPRPRPRPLDLPRP | -0.154
RRIRARPPRLPRPRPRPCRHPRP | -0.355
RRIRPRPPRLPRPRPRPDHHPRP | -0.543
RRIRHRPPRLPRPRPRPKCHPRP | -0.201
RRIRERPPRLPRPRPRPGDVPRP | -0.159
RRIRIRPPRLPRPRPRPQMKPRP | -0.747
RRIRGRPPRLPRPRPRPPHQPRP | 0.806
RRIRCRPPRLPRPRPRPGSSPRP | 0.0141
RRIRLRPPRLPRPRPRPTMVPRP | -0.0972

Sequence | shrunken log2 fold change
RRIRPRPPRLPRPRPRPMPVPRP | 0.0347
RRIRWRPPRLPRPRPRPENAPRP | 0.275
RRIRSRPPRLPRPRPRPVTEPRP | -0.0851
RRIRLRPPRLPRPRPRPWMKPRP | -0.249
RRIRIRPPRLPRPRPRPSYPPRP | -0.56
RRIRARPPRLPRPRPRPVLYPRP | 0.0232
RRIRDRPPRLPRPRPRPTMNPRP | 0.116
RRIRHRPPRLPRPRPRPTHLPRP | -0.102
RRIRQRPPRLPRPRPRPIYPPRP | -0.121
RRIRLRPPRLPRPRPRPICTPRP | -0.243
RRIRIRPPRLPRPRPRPYNYPRP | -0.65
RRIRNRPPRLPRPRPRPDTHPRP | -0.105
RRIRERPPRLPRPRPRPIRYPRP | -0.00369
RRIRERPPRLPRPRPRPREPPRP | 0.392
RRIRVRPPRLPRPRPRPMKNPRP | -0.104
RRIRFRPPRLPRPRPRPKTVPRP | -0.117
RRIRPRPPRLPRPRPRPDITPRP | -0.783
RRIRKRPPRLPRPRPRPSWRPRP | 0.211
RRIRIRPPRLPRPRPRPCWSPRP | 0.0832
RRIRFRPPRLPRPRPRPMLTPRP | -0.351
RRIRSRPPRLPRPRPRPEKKPRP | 0.0751
RRIRDRPPRLPRPRPRPMAAPRP | 0.0982
RRIRNRPPRLPRPRPRPHYCPRP | -0.481
RRIRLRPPRLPRPRPRPTDYPRP | -0.286
RRIRVRPPRLPRPRPRPSERPRP | -0.0442

Sequence | shrunken log2 fold change
RRIRERPPRLPRPRPRPNYHPRP | -0.626
RRIRLRPPRLPRPRPRPYFWPRP | -0.0237
RRIRTRPPRLPRPRPRPNWIPRP | -0.289
RRIRMRPPRLPRPRPRPHMNPRP | -0.0129
RRIRIRPPRLPRPRPRPSVVPRP | 0.055
RRIRVRPPRLPRPRPRPQWDPRP | -0.0347
RRIRNRPPRLPRPRPRPSPCPRP | -0.36
RRIRYRPPRLPRPRPRPIFPPRP | -0.23
RRIRERPPRLPRPRPRPILVPRP | 0.028
RRIRWRPPRLPRPRPRPIESPRP | 0.467
RRIRLRPPRLPRPRPRPGSNPRP | -0.57
RRIRGRPPRLPRPRPRPGPEPRP | 0.954
RRIRVRPPRLPRPRPRPFLIPRP | -0.777
RRIRPRPPRLPRPRPRPMGFPRP | -0.0125
RRIRQRPPRLPRPRPRPCLMPRP | -0.0141
RRIRLRPPRLPRPRPRPGHQPRP | 0.122
RRIRSRPPRLPRPRPRPRTMPRP | 0.108
RRIRLRPPRLPRPRPRPAFHPRP | -0.0947
RRIRNRPPRLPRPRPRPGECPRP | 0.266
RRIRMRPPRLPRPRPRPNDKPRP | 0.145
RRIRVRPPRLPRPRPRPKKPPRP | -0.0463
RRIRYRPPRLPRPRPRPVHGPRP | -0.014
RRIRWRPPRLPRPRPRPWEKPRP | 0.624
RRIRIRPPRLPRPRPRPAPKPRP | 0.187
RRIRYRPPRLPRPRPRPVFIPRP | -0.929

Sequence | shrunken log2 fold change
RRIRDRPPRLPRPRPRPPCQPRP | 0.029
RRIRWRPPRLPRPRPRPKDDPRP | 0.553
RRIRHRPPRLPRPRPRPLFCPRP | -0.604
RRIRDRPPRLPRPRPRPEFEPRP | 0.824
RRIRARPPRLPRPRPRPKDKPRP | 0.0564
RRIRRRPPRLPRPRPRPHHDPRP | -0.298
RRIRHRPPRLPRPRPRPSCLPRP | -0.4
RRIRRRPPRLPRPRPRPYKMPRP | 0.187
RRIRARPPRLPRPRPRPKVTPRP | 0.0237
RRIRVRPPRLPRPRPRPCDHPRP | -0.338
RRIRDRPPRLPRPRPRPWMIPRP | -0.124
RRIRRRPPRLPRPRPRPSEHPRP | 0.453
RRIRIRPPRLPRPRPRPIMDPRP | -0.364
RRIRVRPPRLPRPRPRPEIIPRP | -0.0128
RRIRGRPPRLPRPRPRPKTYPRP | 0.23
RRIRDRPPRLPRPRPRPLGGPRP | 0.461
RRIRNRPPRLPRPRPRPKHFPRP | 0.054
RRIRFRPPRLPRPRPRPDTTPRP | 0.00968
RRIRMRPPRLPRPRPRPFIPPRP | -0.26
RRIRRRPPRLPRPRPRPQNWPRP | 0.199
RRIRPRPPRLPRPRPRPSHVPRP | -0.544
RRIRPRPPRLPRPRPRPQQMPRP | -0.00373
RRIRVRPPRLPRPRPRPFQPPRP | -0.152
RRIRYRPPRLPRPRPRPFWVPRP | -0.0684
RRIRFRPPRLPRPRPRPVGTPRP | 0.00754
